Results: patent publication US20230012273A1

What was measured:
[1] = target: ED-tagged human SIRPα V1 receptor on Jurkat signaling reporter cells (human) (UniProt P78324); test: cell-based or functional assay
[2] = target: ED-tagged human SIRPα V2 receptor on Jurkat signaling reporter cells (human) (UniProt P78324); test: cell-based or functional assay
Sequence of ED-tagged human SIRPα V2 receptor on Jurkat signaling reporter cells (human) (P78324 31-504): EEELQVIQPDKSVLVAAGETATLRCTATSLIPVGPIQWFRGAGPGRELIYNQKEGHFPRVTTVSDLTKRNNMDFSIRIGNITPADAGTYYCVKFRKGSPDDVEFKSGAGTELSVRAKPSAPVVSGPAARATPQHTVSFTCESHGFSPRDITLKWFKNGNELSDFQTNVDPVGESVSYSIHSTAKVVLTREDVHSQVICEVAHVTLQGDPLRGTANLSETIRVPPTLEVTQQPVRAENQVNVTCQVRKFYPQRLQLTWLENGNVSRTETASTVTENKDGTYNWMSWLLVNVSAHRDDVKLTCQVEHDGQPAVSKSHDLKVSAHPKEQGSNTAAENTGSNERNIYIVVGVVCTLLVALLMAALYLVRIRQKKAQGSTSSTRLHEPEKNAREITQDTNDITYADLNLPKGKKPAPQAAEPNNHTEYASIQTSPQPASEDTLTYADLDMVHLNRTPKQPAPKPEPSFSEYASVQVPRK

Sequence of Anti-SIRPα antibody KWAR23 (VH): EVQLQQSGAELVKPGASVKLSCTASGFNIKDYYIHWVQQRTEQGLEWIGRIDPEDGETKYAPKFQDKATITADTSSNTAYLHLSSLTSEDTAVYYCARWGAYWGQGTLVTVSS
Sequence of Anti-SIRPα antibody KWAR23 (VL): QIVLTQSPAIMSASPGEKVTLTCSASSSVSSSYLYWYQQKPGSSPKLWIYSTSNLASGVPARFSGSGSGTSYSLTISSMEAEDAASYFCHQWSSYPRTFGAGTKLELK
Sequence of ED-tagged human SIRPα V1 receptor on Jurkat signaling reporter cells (human) (P78324 31-504): as the sequence (P78324 31-504) above

With Anti-SIRPα antibody KWAR23 the Blockade of Cellular CD47-Mediated SIRPα Signaling; IC50 [1] was 0.04 nM and the Blockade of Cellular CD47-Mediated SIRPα Signaling; IC50 [2] was 0.04 nM.
